Consider 3 molecules from patent US11192948B2, “Compositions and methods for inhibiting cancer stem cells” (MedImmune Limited, priority 2015, dated 2021).

One series deals with Cytivia cardiomyocytes. In words: Doxorubicin-mediated cardiomyocyte damage (calcium, viability imaging). The format is cell-based. The protocol: Next, we sought to determine if inhibiting LOX1 could block doxorubicin-mediated cardiomyocyte damage. Cytivia™ cardiomyocytes were purchased from GE Healthcare and plated following manufacturer's instructions with the substitution of bovine fibronectin for human fibronectin. Cells were allowed to adhere for 4 days and then medium was changed. At days 5-7, medium was removed and cells were pre-incubated with the indicated concentration of LX5140110 for 4 hours prior to the addition of 5 μM doxorubicin (DOX). After addition of DOX, cells were incubated for a further 24 hours. After incubation, media was removed and cells were stained with DAPI (1:4000 dilution of 1 mg/mL), TOTO-3 (1 uL of dye solution per 1 mL of medium), and 5 μM Fluo-4. Cells were incubated for 1 hour at 37° C. and then imaged on Image on GE IN Cell Analyzer. Viability was determined by obtaining the number of cells excluding DAPI and TOTO-3 dyes while Fluo-4 was used to determine calcium concentrations. It is known that cardiomyocytes show an increase in calcium load during endotoxin induced cardiac dysfunction. (Thompson et al., Pediatric Research (2000) 47: 669-676).

For series [1], the system named is Pan02.13 cells. In words: Pan02.13 cell growth under standard tissue culture conditions. The format is cell-based. The settings on record: 100 ng/mL; P<0.001. An excerpt: (§1) Given that chemotherapies and even some targeted therapies can enrich for CSCs despite the reductions in tumor burden, combination approaches using a CSC-specific targeted therapy in combination with these agents becomes an attractive approach to treatment of cancer patients. Since LX5140110 targets CSCs specifically, we sought to address the combined effects of the current standard of care chemotherapy for pancreatic cancer, gemcitabine, and LX5140110. First the ability of gemcitabine to inhibit the Pan02.13 was tested. Pan02.13 cells were plated under standard tissue culture conditions with and without 100 ng/mL gemcitabine in a tissue culture coated flat-bottomed plate (n=10). […] To determine the effects of treatments on CSCs, Pan02.13 was treated in standard tissue culture conditions for 4 days with either 50 μg/mL of LX5140110 or a control antibody and with or without 100 ng/mL of gemcitabine (GEM) then analyzed for the percentage of CSCs by flow cytometry. The percentage of CSCs (EpCAM+CD24+CD44+) was determined for each treatment condition. The cells were first gated for single, viable cells using scatter and DAPI. Fluorescence minus one (FMO) controls were utilized for gating, with the EpCAM+population analyzed for CD44 and CD24 expression.

Series [2] concerns Pan02.13 cells. The series is described as follows: Percentage of CSCs (EpCAM+CD24+CD44+) in Pan02.13 by flow cytometry. The following applies: 4 days; for effect of single agent on percentage of CSCs: LX5140110 50 μg/mL or gemcitabine 100 ng/mL. The series is classed as cell-based.
Text: as §1
In general terms: Flow cytometry measures light scatter and fluorescence of single cells or particles in a stream.

The subject of series [3] is PA-0143 pancreatic PDX CSCs. The series is described as follows: Tumor sphere formation of pancreatic PDX model PA-0143. The following applies: compared to STEM0268. The format is cell-based, human. The protocol: DARPins showing the preferred binding patterns were screened for their ability to inhibit sphere formation using one of the pancreatic PDX models (PA-0143) used for selections. Briefly, following dissociation of the tumor cells they were plated in 96-well ultra-low attachment plates containing MSCGM with 50 ug/mL DARPins. All DARPins were tested in triplicate. After 4 days plates were read and inhibitory molecules were identified as showing inhibitory activity at least 1 standard deviation (SD) from the mean of the untreated and control DARPin-treated wells. A second assay based on expression of EZH2 in CSCs was also run. We have previously shown in pancreatic cancer that CSCs can be identified based on their high expression of EZH2 and trimethylation of histone 3 on lysine 27 (Van Vlerken L et al. 2013 EZH2 is required for breast and pancreatic cancer stem cell maintenance and can be used as a functional cancer stem cell reporter Stem Cells Transl Med 2(1):43-52). Using HPAC cells, the EZH2 assay was performed as previously described with the inclusion of 50 μg/mL DARPin. […]
STEM0268 inhibits cancer stem cells. […] Briefly, cells were dissociated using 200 units/mL of collagenase IV plated, washed counted and resuspended at 30,000 cells/mL in MSCGM (Lonza) and plated in an ultra-low attachment 6-well plate. […]

Series [4] relates to PA-0165 pancreatic PDX CSCs. The series is described as follows: Tumor sphere formation of pancreatic PDX model PA-0165. The format is cell-based, human. The settings on record: compared to STEM0268. The protocol: STEM0268 inhibits cancer stem cells. […] Briefly, cells were dissociated using 200 units/mL of collagenase IV plated, washed counted and resuspended at 30,000 cells/mL in MSCGM (Lonza) and plated in an ultra-low attachment 6-well plate. Antibodies were added to appropriate wells at 50 μg/mL. Following incubation for 4 days, spheres were harvested, dissociated and replated in a similar manner to generate secondary spheres and assess the ability of CSCs to self-renew. […] Salinomycin (1 μM) served as the positive control in both of these experiments (Gupta P B et al. 2009).

A further series concerns pancreatic cell lines. In words: Inhibition of CSCs in pancreatic cell lines. The format is cell-based. The settings on record: multiple pancreatic cell lines. The source says: To further confirm the ability of a LOX1 inhibitor to inhibit CSC sphere formation, a LOX1-specific monoclonal antibody (mAb), LX5140110, which comprises a VL comprising SEQ ID NO: 33 and a VH comprising SEQ ID NO: 4 (see, e.g., Table 1), was compared to STEM0268 for their ability to inhibit sphere formation in the pancreatic PDX models.

The next series deals with colorectal cell lines. The series is described as follows: Inhibition of CSCs in colorectal cell lines. The format is cell-based.
In the next series the test system is PA-0143 PDX tumors. The series is described as follows: In vivo study with PA-0143 PDX tumors. Details: species or system NSG mice. The protocol: An in vivo study with PA-0143, was run to determine the ability of LX5140110 to inhibit CSCs in vivo. PA-0143 PDX tumors were passaged by trocar implantation of tumor fragments into 6-8 week old NSG mice (NOD.Cg-Prkdc^scid Il2rg^tmIWjl/SzJ) and allowed to grow to −300 mm^3 at which point they were randomized and treated with subcutaneous injections of either a control IgG1 mAb or LX5140110 at 30 mg/kg twice-weekly for 2 weeks (FIG. 8A). […] Twenty-four hours after the last dose of antibodies, tumors were removed from a subset of the mice and analyzed for the percentage of CSCs.

[5] abbreviates: 50 μg/mL with 100 ng/mL gemcitabine.
The mark [6] stands for this setting: 4 hours pre-incubation before 5 μM DOX.

Consider `COc1cccc2c1C(=O)c1c(O)c3c(c(O)c1C2=O)C[C@@](O)(C(=O)CO)C[C@@H]3O[C@H]1C[C@H](N)[C@H](O)[C@H](C)O1` [DOX, doxorubicin, reference compound], for which the viability of cardiomyocytes entry in the series with Cytivia cardiomyocytes (5 μM DOX, 24 hours) is on record as “decreased viability”. Further, in the series with Cytivia cardiomyocytes (5 μM DOX, 24 hours, compared to untreated controls), the “increase of calcium concentration” value is reported as “approximately 2.5 fold”.
Regarding `Nc1ccn([C@@H]2O[C@H](CO)[C@@H](O)C2(F)F)c(=O)n1` [gemcitabine, reference compound], the cell numbers entry in the series with Pan02.13 cells [1] was “significant reduction in cell numbers”. In addition, the “effect of single agent on percentage of CSCs” value in the series with Pan02.13 cells [2] was “enriched for CSCs”.

B1: LX5140110: LOX1-specific monoclonal antibody; VH SEQ ID NO: 4, VL SEQ ID NO: 33 (antibody, V domains shown)
VH: QVQLVQSGAEVKKPGASVKVSCKVSGYTLTELSMHWVRQAPGKGLEWMGGFDPEDFKYHTHQKFQGRVTMTEDTSTDTAYMELSSLRSEDTAVYYCALVWGTQGKGVRGWDYYYGMDVWGQGTTVTVSS
VL: QSVVTQPPSVSGAPGQRVTISCTGSSSNIGAGYDVHWYQQLPGTAPKLLIYGNSNRPSGVPDRFSGSKSGTSASLAITGLQAEDEADYYCQSYDSSLSGWVFGGGTKLTVL
modifications: LX5140110 Heavy Chain sequence; LX5140110 Light Chain sequence
In the case of B1, the “inhibition of sphere formation (in words)” value in series [3] and in series [4] was “inhibited sphere formation” in each case. For the same molecule, the “inhibition of CSCs” value in the series on pancreatic cell lines and in the series on colorectal cell lines was “able to inhibit CSCs” in each case. Further, in the series with PA-0143 PDX tumors (30 mg/kg subcutaneous twice-weekly for 2 weeks, vs vehicle and control IgG1, P<0.001), the tumor growth result is “only slightly reduced tumor growth”. Also, in the series on PA-0143 PDX tumors (24 hours after last dose, compared to vehicle control), the “percentage of CSCs in tumors” value is “significant reduction of CSCs”. For the same molecule, the “effect on gemcitabine-induced enrichment of CSCs” value in the series with Pan02.13 cells [2] (setting [5]) is on record as “inhibited this increase”. Moreover, in the series with Pan02.13 cells [2] (setting [5]), the “percentage of CSCs of viable cells” value is 0.62%. Besides, the “effect of single agent on percentage of CSCs” value in the series on Pan02.13 cells [2] is on record as “slight reduction of CSCs”. Besides, in the series on Cytivia cardiomyocytes (setting [6]), the “effect on DOX-induced accumulation of calcium” value is on record as “able to inhibit the accumulation of calcium”. Further, the “effect on DOX-induced decrease of viability” value with Cytivia cardiomyocytes (setting [6]) was “reversed”.
